Results on three substances are retold here after patent US20230416346.

For series [1], the target named is recombinant human full-length SPARC (R&D Systems) (UniProt P09486).
Series [2] concerns the target human SPARC secreted by human mammary fibroblasts (HMFs) (UniProt P09486).

human cath-D secreted by TNBC cells (MDA-MB-231), sequence (chain, as listed by the source): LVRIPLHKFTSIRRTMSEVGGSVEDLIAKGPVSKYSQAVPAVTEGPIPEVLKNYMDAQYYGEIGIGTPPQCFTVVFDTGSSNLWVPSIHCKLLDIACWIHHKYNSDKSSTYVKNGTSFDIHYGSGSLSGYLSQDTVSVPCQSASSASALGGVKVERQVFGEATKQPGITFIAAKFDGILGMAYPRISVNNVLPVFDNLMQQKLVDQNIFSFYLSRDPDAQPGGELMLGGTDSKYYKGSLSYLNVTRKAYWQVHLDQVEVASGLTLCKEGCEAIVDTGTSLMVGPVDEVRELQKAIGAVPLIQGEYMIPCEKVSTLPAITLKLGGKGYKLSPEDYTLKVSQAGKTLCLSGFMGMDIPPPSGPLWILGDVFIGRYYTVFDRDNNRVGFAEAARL
auto-activated 51-kDa pseudo-cath-D (recombinant human cathepsin D), sequence (chain, as listed by the source): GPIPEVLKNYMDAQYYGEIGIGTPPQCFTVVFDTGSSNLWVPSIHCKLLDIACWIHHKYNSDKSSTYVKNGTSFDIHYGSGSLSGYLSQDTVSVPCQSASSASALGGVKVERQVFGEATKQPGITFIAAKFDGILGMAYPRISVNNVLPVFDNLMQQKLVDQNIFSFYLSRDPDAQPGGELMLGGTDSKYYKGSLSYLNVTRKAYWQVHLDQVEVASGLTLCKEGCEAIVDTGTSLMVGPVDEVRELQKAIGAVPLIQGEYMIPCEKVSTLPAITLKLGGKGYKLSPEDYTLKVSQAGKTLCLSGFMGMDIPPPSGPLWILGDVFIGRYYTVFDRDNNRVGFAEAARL
human SPARC secreted by human mammary fibroblasts (HMFs), sequence (P09486 18-303): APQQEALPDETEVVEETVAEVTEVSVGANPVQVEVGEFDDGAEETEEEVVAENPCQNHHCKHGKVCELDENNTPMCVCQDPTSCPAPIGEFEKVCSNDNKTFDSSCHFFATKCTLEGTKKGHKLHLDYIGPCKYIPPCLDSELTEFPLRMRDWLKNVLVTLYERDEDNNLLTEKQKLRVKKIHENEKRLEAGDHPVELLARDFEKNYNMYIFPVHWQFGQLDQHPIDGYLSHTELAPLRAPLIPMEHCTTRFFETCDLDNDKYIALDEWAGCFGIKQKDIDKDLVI
recombinant human full-length SPARC (R&D Systems), sequence (P09486 18-303): as above

For the substance “fully-mature cath-D (34+14-kDa) (recombinant human cathepsin D)”, in series [1], the ATOMS ratio (Mature cath-D + SPARC - pepst./Mature cath-D + SPARC + pepst.), peptide DQHPIDGYLSHTELAPLR [239-256], trypsin was found to be 8.1; the ATOMS ratio (Mature cath-D + SPARC - pepst./Mature cath-D + SPARC + pepst.), peptide DWLKNVLVTLYER [169-181], trypsin was found to be 0.5; the ATOMS ratio (Mature cath-D + SPARC - pepst./Mature cath-D + SPARC + pepst.), peptide EAGDHPVELLAR [207-218], trypsin was found to be 19.3; the ATOMS ratio (Mature cath-D + SPARC - pepst./Mature cath-D + SPARC + pepst.), peptide FGQLDQHPIDGYLSHTELAPLR [235-256], trypsin is 5.9. For the same substance, in series [1], the ATOMS ratio (Mature cath-D + SPARC - pepst./Mature cath-D + SPARC + pepst.), peptide GQLDQHPIDGYLSHTELAPLR [236-256], trypsin was 2.3; the ATOMS ratio (Mature cath-D + SPARC - pepst./Mature cath-D + SPARC + pepst.), peptide LDSELTEFPLR [156-166], trypsin was 0.4; the ATOMS ratio (Mature cath-D + SPARC - pepst./Mature cath-D + SPARC + pepst.), peptide LSHTELAPLR [247-256], trypsin was 2.4; the ATOMS ratio (Mature cath-D + SPARC - pepst./Mature cath-D + SPARC + pepst.), peptide PLIPMEHCTTR [258-268], trypsin is 4.3. In addition, in series [1], the ATOMS ratio (Mature cath-D + SPARC - pepst./Mature cath-D + SPARC + pepst.), peptide PVHWQFGQLDQHPIDGYLSHTELAPLR [230-256], trypsin was 5.6; the ATOMS ratio (Mature cath-D + SPARC - pepst./Mature cath-D + SPARC + pepst.), peptide QLDQHPIDGYLSHTELAPLR [237-256], trypsin is 2.2; the ATOMS ratio (Mature cath-D + SPARC - pepst./Mature cath-D + SPARC + pepst.), peptide SHTELAPLR [248-256], trypsin was found to be 1.6; the ATOMS ratio (Mature cath-D + SPARC - pepst./Mature cath-D + SPARC + pepst.), peptide VTLYERDEDNNLLTEK [176-191], trypsin turned out to be 14.3. In addition, in series [1], the ATOMS ratio (Mature cath-D + SPARC - pepst./Mature cath-D + SPARC + pepst.), peptide WQFGQLDQHPIDGYLSHTELAPLR [233-256], trypsin is 3.1; the ATOMS ratio (Mature cath-D + SPARC - pepst./Mature cath-D + SPARC + pepst.), peptide YERDEDNNLLTEK [179-191], trypsin stood at 11.8; the ATOMS ratio (Mature cath-D + SPARC - pepst./Mature cath-D + SPARC + pepst.), peptide YERDEDNNLLTEKQK [179-193], trypsin was 16.8; the ATOMS ratio (Mature cath-D + SPARC - pepst./Mature cath-D + SPARC + pepst.), peptide YLSHTELAPLR [246-256], trypsin was found to be 5.7. Also, the “SPARC cleavage at pH 5.9, ATOMS and silver staining” value in series [1] is recorded as “We detected SPARC cleavage fragments of similar size also after incubation with the fully mature 34+14-kDa cath-D form at pH 5.9”.

Regarding “auto-activated 51-kDa pseudo-cath-D (recombinant human cathepsin D)”, in series [1], the ATOMS ratio (Pseudo-cathD + SPARC - pepst./Pseudo-cath-D + SPARC + pepst), peptide DQHPIDGYLSHTELAPLR [239-256], trypsin was found to be 8.4; the ATOMS ratio (Pseudo-cathD + SPARC - pepst./Pseudo-cath-D + SPARC + pepst), peptide EAGDHPVELLAR [207-218], trypsin came to 11.3; the ATOMS ratio (Pseudo-cathD + SPARC - pepst./Pseudo-cath-D + SPARC + pepst), peptide FGQLDQHPIDGYLSHTELAPLR [235-256], trypsin was found to be 10.6; the ATOMS ratio (Pseudo-cathD + SPARC - pepst./Pseudo-cath-D + SPARC + pepst), peptide GQLDQHPIDGYLSHTELAPLR [236-256], trypsin stood at 2. Also, in series [1], the ATOMS ratio (Pseudo-cathD + SPARC - pepst./Pseudo-cath-D + SPARC + pepst), peptide PLIPMEHCTTR [258-268], trypsin is 22.5; the ATOMS ratio (Pseudo-cathD + SPARC - pepst./Pseudo-cath-D + SPARC + pepst), peptide QLDQHPIDGYLSHTELAPLR [237-256], trypsin was found to be 3.5; the ATOMS ratio (Pseudo-cathD + SPARC - pepst./Pseudo-cath-D + SPARC + pepst), peptide SHTELAPLR [248-256], trypsin was 2.7; the ATOMS ratio (Pseudo-cathD + SPARC - pepst./Pseudo-cath-D + SPARC + pepst), peptide VTLYERDEDNNLLTEK [176-191], trypsin was 12.1. In series [1], the ATOMS ratio (Pseudo-cathD + SPARC - pepst./Pseudo-cath-D + SPARC + pepst), peptide YERDEDNNLLTEK [179-191], trypsin was determined as 13.7; the ATOMS ratio (Pseudo-cathD + SPARC - pepst./Pseudo-cath-D + SPARC + pepst), peptide YERDEDNNLLTEKQK [179-193], trypsin was found to be 21.1; the ATOMS ratio (Pseudo-cathD + SPARC - pepst./Pseudo-cath-D + SPARC + pepst), peptide YLSHTELAPLR [246-256], trypsin is 18.8; the “SPARC cleavage at pH 5.9, ATOMS and silver staining” value is “SPARC was hydrolysed by the 51-kDa cath-D form exclusively in its extracellular Ca2+ binding domain, releasing five main SPARC fragments (34-, 27, 16, 9-, and 6-kDa) at pH 5.9”. For the same substance, in series [1], the “SPARC cleavage, pH dependence (6.8 to 5.5), SDS-PAGE and immunoblot” value is listed as “experiments in which pH was gradually reduced from 6.8 to 5.5 showed progressive limited proteolysis of SPARC at lower pH”; the “SPARC cleavage, time course at pH 5.9, SDS-PAGE and immunoblot” value is “At pH 5.9, SPARC was hydrolysed by cath-D in a time-dependent manner”.

Turning to “human cath-D secreted by TNBC cells (MDA-MB-231)”, in series [2], the “SPARC cleavage in MDA-MB-231/HMF conditioned medium at pH 5.5, immunoblot” value is reported as “SPARC was hydrolysed in a time-dependent manner in the conditioned medium at pH 5.5”; the “SPARC cleavage in MDA-MB-231/HMF conditioned medium at pH 6.8 to 5.5, immunoblot” value was “in the MDA-MB-231/HMF conditioned medium, SPARC was significantly degraded up to pH 6.2”; the TAILS ratio (CM - pepst./CM + pepst.), peptide DQHPIDGYLSHTELAPLR [239-256], trypsin is 7.6; the TAILS ratio (CM - pepst./CM + pepst.), peptide EAGDHPVELLAR [207-218], trypsin was determined as 3.4. Besides, in series [2], the TAILS ratio (CM - pepst./CM + pepst.), peptide GQLDQHPIDGYLSHTELAPLR [236-256], trypsin was found to be 12.4; the TAILS ratio (CM - pepst./CM + pepst.), peptide PLIPMEHCTTR [258-268], trypsin amounted to 5.9; the TAILS ratio (CM - pepst./CM + pepst.), peptide QLDQHPIDGYLSHTELAPLR [237-256], trypsin turned out to be 15.1; the TAILS ratio (CM - pepst./CM + pepst.), peptide YLSHTELAPLR [246-256], trypsin is 4.4.
